# Test results as given in the DeepSol protein solubility set.
# Assay: soluble on expression in E. coli; label from the status in PepcDB or PDB records
row,Sequence,soluble on expression in E. coli
1,MPIKVGINGFGRIGRMVFQALCEDGLLGTEIDVVAVVDMNTDAEYFAYQMRYDTVHGKFKYEVTTTKSSPSVAKDDTLVVNGHRILCVKAQRNPADLPWGKLGVEYVIESTGLFTAKAAAEGHLRGGARKVVISAPASGGAKTLVMGVNHHEYNPSEHHVVSNASCTTNCLAPIVHVLVKEGFGVQTGLMTTIHSYTATQKTVDGVSVKDWRGGRAAAVNIIPSTTGAAKAVGMVIPSTQGKLTGMSFRVPTPDVSVVDLTFTAARDTSIQEIDAALKRASKTYMKGILGYTDEELVSADFINDNRSSIYDSKATLQNNLPKERRFFKIVSWYDNEWGYSHRVVDLVRHMASKDRSARL,soluble
2,HHHHHHATGDDHFYAEYLMPGLQRLLDPESAHRLAVRVTSLGLLPRATFQDSDMLEVKVLGHKFRNPVGIAAGFDKNGEAVDGLYKLGFGFVEVGSVTPQPQEGNPRPRVFRLPEDQAVINRYGFNSHGLSVVEHRLRARQQKQAQLTADGLPLGINLGKNKTSEDAAADYAEGVRTLGPLADYLVVNVSSPNTAGLRSLQGKTELRHLLSKVLQERDALKGTRKPAVLVKIAPDLTAQDKEDIASVARELGIDGLIVTNTTVSRPVGLQGALRSETGGLSGKPLRDLSTQTIREMYALTQGRIPIIGVGGVSSGQDALEKIQAGASLVQLYTALIFLGPPVVVRVKRELEALLKERGFTTVTDAIGADHRR,soluble
3,MGSDKIHHHHHHMSPLFTNSEIISRVIKEHFNKNLDHYDGVKFSFMVLNKKNPSQMIIISSYPDEWVNLYKENKYQHIDPVVLASFNKISPFSWEKSLVINTRLQLAKIFDLSKKYDIINGYTFVLHDHGDNLAMLSIIVDNSYPDDVETFIEERKDIFQMLLIEAYEKIISLCKEMIGNKKQLNNKEIFSQRENEILYWASMGKTYLEVAIILGIKTSTVKFHIGNVVKKLGVLNAKHAIRLGVELQLIKPVQ,not soluble
4,MKKVAIVGLGWLGMPLAMSLSARGWQVTGSKTTQDGVEAARMSGIDSYLLRMEPELVCDSDDLDALMDADALVITLPARRSGPGDEFYLQAVQELVDSALAHRIPRIIFTSSTSVYGDAQGTVKETTPRNPVTNSGRVLEELEDWLHNLPGTSVDILRLAGLVGPGRHPGRFFAGKTAPDGEHGVNLVHLEDVIGAITLLLQAPKGGHIYNICAPAHPARNVFYPQMARLLGLEPPQFRNSLDSGKGKIIDGSRICNELGFEYQYPDPLVMPLELEHHHHHH,not soluble
5,MDEGMQIVGAVSGLSTPFNQNVSLECYNGILSMLLNGAPLADILHALVLKIEDQRLGTHASVLLLSEDGKRVLTGAAPHLPDSYNQVIHGVEIGPEVGSCGTAAYTGQRVIVEDIEHHPYWALYKSFALVHGLRACWSEPIKDTQGKVLGTFAMYYKEIKSPTVADLTLIAEAARLASLAIERSRSLEFQRLAVKIFDRLPLALVITNASHSVLYANDAFKLMVCLQPDDILAFNPEQFFSPSEPHEIASLFNHLSEGKMWQGELVGLRNNGETFYLDLTVTVFRESHSADLGFAWLFSDVSERKKAAQLIKYQANNDSLTGLANRNALFRQIQELINADSLTPGFSFMLMDLDNFKQVNDTYGHDKGDVLLVQMVEQVKICLDPQAVFARLGGDEFAILLPGVVTQRELSQLADKINKQVYRRYELSHDKGVYSSVSIGIARFPEDALDLEQLLNCADQAMYISKANGRNRYHFFTEQMQQNAERIANLHTLLKQALEQNAFELYFQPIVDATTGLIVRAEVLLRWQHEGQFISPDEFIPIAENSGLIVSIGRCVRQAVMQTIVEMQALGWPMSLAINVSTFEFWSHELQDEFCDSFTDIIEGLGVEDFPYELITLEITESLLMKKHAHLIQVLNELRARGIKISLDDFGTGYSSLSYLANFPIDQIKIDKSFIDRLAEGERHLALIEAIVRLSHALNLRVTAEGVETQEQLQVMMDNHIQEIQGYLFYKPIPKAVFFELLAKQAVISPHSLEHHHHHH,not soluble
6,DSTFTNISLADDIDHSSRILYPRPKSLLPKMMNADMDVDAENQVELEEKTRLINQVLELQHTLEDLSARVDAVKEENLKLKSENQVLGQYIENLMSASSVFQTTDTKSKRK,not soluble
7,MGSDKIHHHHHHMTYLVTGATGGLGGYALNYLKELVPMSDIYALVRSEEKGADLKAAGFNIRVGDYSDAESMKQAFVGIDRVLFVSGAPGNRQVEHENVVNAAKAAGVSYIAYTSFAGADKSTSALAEDHFFTEKVIEKSGIAHTFLRNNWYFENEMPMIGGALSAGKFVYAAENGKVGWALKREYAEVAAKAVAGADFPEILELSGPLMTYEELTKALKEATGKDFDVISSDDKGFVENLVSAGLPQPVAEMFLSFQHDIKNDQLDVTSDDFEKALGKPLTNRVDALRELLK,not soluble
8,GSHMASMTGGQQMGRGSMNTEELQVAAFEIILNSGNARSIVHEAFDAMREKNYILAEQKLQEANDELLKAHQAQTDLLQEYASGTEIKIEIIMVHAQDHLMTTMTLREVAIEMLELYKKS,soluble
9,MYQDLIRNELNEAAETLANFLKDDANIHAIQRAAVLLADSFKAGGKVLSCGNGGSHCDAMHFAEELTGRYRENRPGYPAIAISDVSHISCVSNDFGYDYIFSRYVEAVGREGDVLLGISTSGNSGNVIKAIAAAREKGMKVITLTGKDGGKMAGTADIEIRVPHFGYADRIQEIHIKVIHILIQLIEKEMVK,not soluble
10,MKLDKIDNKNRRIRKKLFLGEFAILGFEISCETDINDFDRYDAFVDDFIDYIDTLGLCFGGGGLELFEGFLCSTERYGSATEEQKAQVVAWLEARPEVKSAKAGDLLDANYL,soluble
11,MSLDTIAVVLKQPQQVELSRLSLTAPTDDDIVVDVAWSGVSTGTERLLWSGRMPQFPGMGYPLVPGYESVGEVVEAGSATDLKPGQMVFVPGAKCFGEVRGLFGASASRLVVPAKRVVPLDSKLGERGILIALAATAYHAIAARGATPPDCIVGHGVLGRLLARISIALGNPPPVVWEKNPIRSGGAEGYAVVDPASDERRDYRSIYDVSGDPKLLDTLISRIAATGEIVLAGFYSEPLSFSFPPAFMREARIRVAAEWQPPDIGATKALIESGKLSLDGLITHHQEAASAPDAYRIAFEDPACLKMVLNWRPSEGHHHHHH,soluble
12,MAGDPMVTQNKKILIITGSFGNGHMQVTQSIVNQLNDMNLDHLSVIEHDLFMEAHPILTSICKKWYINSFKYFRNMYKGFYYSRPDKLDKCFYKYYGLNKLINLLIKEKPDLILLTFPTPVMSVLTEQFNINIPVATVMTDYRLHKNWITPYSTRYYVATKETKQDFIDVGIDPSTVKVTGIPIDNKFETPINQKQWLIDNNLDPDKQTILMSAGAFGVSKGFDTMITDILAKSANAQVVMICGKSKELKRSLTAKFKSNENVLILGYTKHMNEWMASSQLMITKPGGITITEGFARCIPMIFLNPAPGQELENALYFEEKGFGKIADTPEEAIKIVASLTNGNEQLTNMISTMEQDKIKYATQTICRDLLDLIGHSSQPQEIYGKVPLYARFFVKLEHHHHHH,not soluble
13,MVDAGLVLAAGFSRRFRGLLGVHKVAAGVRGYPLLCYPVTSLALAGVDRVFVVASQFNLNVVELVLGHCPFRVSGVLISSLSTLGNGFSLVEGLREAGLRGSRCLAVSMADHVYPPSIARRLIEAGCNTLGVDSRPRYIEVGEATHVSLEPGAGVRLGKDVEGCCVDIGIHTIEAGIASIGCIDLPPRGEASVSQLITCAARKGYTFKLVDVDGGPWMEVDSPEDLERLLQGDGLEVLEAVRSEWGFLEHHHHHH,not soluble
14,MSLKLKEEERMTEMILEYKNQLCKQNKLIQEKKENVLKMIAEVKGKEQESEELTAKIQELKEEYARKRETISTANKANEERLKGLQKSADLYRDYLGLEIRKIHGNKLQFIFTSIDPKNPESPYMFSMSINEAKEYEVYDSSPHLECLAEFQEKVRKTNNFSAFLANIRKAFIAKVHN,not soluble
15,MGSDKIHHHHHHMNHLVEVQHMERMNRTNHIQKLDKERYLNLKTGEIGEFKQGEVRSDSLNSLRQTFKKLRYLINTNYVGAGNELFITLTYKENMTDVKRLYSDFKKFMLKFRYKYEKQYGSIDYMTVVEPQERGAWHHHLLVRFNDMTGSKMYIPNNDVAALWGHGFTNMHSLNGVDNIGAYLSAYLADVELTTDNVFLAFDDNVEVVSKVVDGQEKKFIKGGRLHLYPSGMNLYRKSKGIKMPVREEMRYGDIKKVVGSEKPHYVKTLVVEQDDFKNTITYEQYNTKR,not soluble
16,GPGSMPAAPLPGEVAKFCSPLYMHKRILRAAAPKPPTVFTAKDNSKTAFHVVTQRPGFATTPYTVSRWYLKEKVHSSNRNRLEGLYECVLCASCTGSCPQYWWNRELFLGPAVLLQSYRWLIEPLDRDFDSRVKMFEHGPLVNFCHNIFNCSITCPKFLNPGMASKEIKRLSSPATLRVGPPLEDAKVASKY,not soluble
17,MNAVHFGAGNIGRGFIGEILAKNGFHITFVDVNETIIQALKERKSYTIELADASHQQINVENVTGLNNMTEPEKVVEAIAEADLVTTAIGPNILPRIAELIAQGIDARAEANCQKPLDIIACENMIGGSTFLAEEVAKYLKNPAYAEQWIGFPDAAVDRIVPLQKHEDPLFVQVEPFCEWVIDDTNRKAKEIQLEGVHYVAD,not soluble
18,MSLNPKAKFAVIDDLETSRLHISHILQEDGFTVDLFDSATQFLLMKDEILDYAGLIIDIHMPGYNGYELAETIHAMFGTSAPPFIFISASPESIRHDRFNTEHMWQGFAKPMDKNRFIDSIRVLSDKSSLKTEAFEPASVLLVEDEPINAEVVKTMLERNGHTVEVATTGAAALHLATTVPFNLILMDINLPDMSGIETTRCIKAQGVDTEIVALTGNAYEEDKLKTKEAGMSYHLVKPVMYHELNNVIKLALRVAHEGHHHHHH,soluble
19,MAKQPTVLWAQRESLVYLTIEVDEAKIEELKGEGNKLHFQGSSKTDKYEATLEFFDEIDPASVKHTGSSTRVVEITVQKKTPAWWPRLLQNKGKVHWLKVDFGKWKDEDEDDEAEDAGAGIGGGMANGFDLNQYMSQMGGAGGADFGGLEDDEEDDDMPDLEDNEEEEGKNGTRA,not soluble
20,MGSDKIHHHHHHMSSSGYVPDNKNLKKSSGTPNLFFDSRKNIFFKRDEKNVAYEVTSTQLPAMIGGAFVDLFMTKGHMREPHWHPNAWELDVVVSGEAVTSILNPETNQLQNYHMKAGQTVFIPMGWWHWITAVTEEVQLHLFFNNDQFETAEGSDILRLTPPEVFQAAYGVSAEKLGKDLSPIKESVVIGPPNLNRIKGVKESDDSNIVVTLNGQITSCEIE,not soluble
21,MEALADVGVLASWSPLHKQVEVIDYYPDGRPHHVRATVKILGLVDKEVLEYHWGPDWVCWDADQTFQQHGQHIEYTVKPEGVDRARVRFDITVEPAGPIPGFIVKRASEHVLDAAAKGLQKLIAGAGDQGNAKSLEHHHHHH,not soluble
22,FGLKNNPSSSRPEGLLFYEYQQAKPKQQTAHFALDQMIYEINQSFGYEIIQRAKKLAAS,not soluble
23,MGSDKIHHHHHHMRLAAATGFSFVGLRVIAVTPNERVYDLSPGSPLLAATQQALKETALYVLDTEFLQVNADTTREAWLPALEAAGALGAKTFTIAAGDDNIAPLTDTIGAMVDDARDFGVTPALEPISYRSVHSIPQAAAIARDSGGKVVADTLHMARFGATPEELTDVTDVLGVLQLCDSPLQRPADLDGLVTESRSLRLAPGEGEQNLLTFVNALDSNVPLSVETPNDGEVASRGDAGWINHLYNTTQALLEKIEEAV,not soluble
24,MFTAKLIKGKTYNVMGITFRAGVSQTVPKKLYEYLNENPYFILTQELNNQKDDPINYTESELKGMNKAEHESIISNLGRNPSDFKNADERIAYILKQIDNKGELEHHHHHH,soluble
25,MKSTEVKGSVSDATDFLVPLPPKSVNEKILNPAILTLFIPQIKAVSSIRERIYLLRIKWVISWDTPLTVYSVKLDDNRYIARYYASQKIPLFVVSFGFDFYIMSEGTGSRIKMKEWYKGPFKQLAKGEIEKHLKKAKEVLPEFLIKILEHHHHHH,soluble
